# Measured values as given in the RNAGym collection of RNA variant scans (doi:10.7554/elife.80360).
# B1: HDV Ribozyme (parent)
# chain: GGCCGGCAUGGUCCCAGCCUCCUCGCUGGCGCCGGCUGGGCAACAUUCCGAGGGGACCGUCCCCUCGGUAAUGGCGAAUGGGACCCA
# Variants of: B1
# Test: self-cleavage, relative activity (ratio to wild type); higher = more cleavage; co-transcriptional
row,Variant,self-cleavage
1,GGCCGGCAUGGUCCCAGCUUGCUCGCUGGCGCCGGCUGGGCAACAUUCCGAGGGGACCGUCCCCUCGGUAAUGGCGAAUGGGACCCA [C19U C21G],0.0339
2,GGCCGGCAUGGUCCCAGCGUCCUCGCUGGCGCCGGCUGGGCAACAUUCCGAGGGGACCGUCCCCUCUGUAAUGGCGAAUGGGACCCA [C19G G67U],0.058
3,GGCCGGCAUGGUCCCAGCGUCCUCGCUGGCGCCGGCUGGGCAACAUUCCGAGGGGACCGUCCCCUCAGUAAUGGCGAAUGGGACCCA [C19G G67A],0.0779
4,GGCCGGCAUGGUCCCAGCGUCCUCGCUGGCGCCGGCUGGGCAACAUUCCGAGCGGACCGUCCCCUCGGUAAUGGCGAAUGGGACCCA [C19G G53C],0.0852
5,GGCCGGCAUGGUCCCAGCGUCCUCGCUGGCGCCGGCUGGGCAACAUUCCGAGUGGACCGUCCCCUCGGUAAUGGCGAAUGGGACCCA [C19G G53U],0.0542
6,GGCCGGCAUGGUCCCAGCGUCCUCGCUGGCGCCGGCUGGGCAACAUUCCGAGAGGACCGUCCCCUCGGUAAUGGCGAAUGGGACCCA [C19G G53A],0.041
7,GGCCGGCAUGGUCCCAGCGUCCUCGCUGGCGCCGGCUGGGCAACAUUCCGAGGGGACCGUCCCCUCGGUAACGGCGAAUGGGACCCA [C19G U72C],0.101
8,GGCCGGCAUGGUCCCAGCUUCCUUGCUGGCGCCGGCUGGGCAACAUUCCGAGGGGACCGUCCCCUCGGUAAUGGCGAAUGGGACCCA [C19U C24U],0.101
9,GGCCGGCAUGGUCCCAGCGUCCUCGCUGGCGCCGGCUGGGCAACAUUCCGAGGGGACCGUCCCCUCGGUAAUGGCGAAUCGGACCCA [C19G G80C],0.0773
10,GGCCGGCAUGGUCCCAGCGUCCACGCUGGCGCCGGCUGGGCAACAUUCCGAGGGGACCGUCCCCUCGGUAAUGGCGAAUGGGACCCA [C19G U23A],0
11,GGCCGGCAUGGUCCCAGCGUCCGCGCUGGCGCCGGCUGGGCAACAUUCCGAGGGGACCGUCCCCUCGGUAAUGGCGAAUGGGACCCA [C19G U23G],0.0811
12,GGCCGGCAUGGUCCCAGCGUCCUCGCUGGCGCCGGCUGGGCAACAUUCCGAGGGGACCAUCCCCUCGGUAAUGGCGAAUGGGACCCA [C19G G59A],0.0542
13,GGCCGGCAUGGUCCCAGCGUCCUCGCUGGCGCCGGCUGGGCAACAUUCCGAGGGGACCUUCCCCUCGGUAAUGGCGAAUGGGACCCA [C19G G59U],0.04
14,GGCCGGCAUGGUCCCAGCGUCCUCGCUGGCGCCGGCUGGGCAACAUUCCGAGGGGACCCUCCCCUCGGUAAUGGCGAAUGGGACCCA [C19G G59C],0.141
15,GGCCGGCAUGGUCCCAGCUUCCUCGCUGGCGCCGGCUGGGCAACAUUCCGGGGGGACCGUCCCCUCGGUAAUGGCGAAUGGGACCCA [C19U A51G],0.194
16,GGCCGGCAUGGUCCCAGCUUCCUCGCUGGCGCCGGCUGGGCAACAUUCCGAGGGGACCGUCCCCUCGGUAAUGGCGUAUGGGACCCA [C19U A77U],0.107
17,GGCCGGCAUGGUCCCAGCGUCCUCGCUGGCGCCGGCUGGGCAACAUACCGAGGGGACCGUCCCCUCGGUAAUGGCGAAUGGGACCCA [C19G U47A],0.106
18,GGCCGGCAUGGUCCCAGCGUCCUCGCUGGCGCCGGCUGGGCAACAUCCCGAGGGGACCGUCCCCUCGGUAAUGGCGAAUGGGACCCA [C19G U47C],0.0852
19,GGCCGGCAUGGUCCCAGCUUCCUCGCUGGCGCCGGCUGGGCAACAUUCCGAGGGGGCCGUCCCCUCGGUAAUGGCGAAUGGGACCCA [C19U A56G],0.119
20,GGCCGGCAUGGUCCCAGCUUCCUCGCUGGCGCCGGCUGGGCAACAUUCCGAGGGGCCCGUCCCCUCGGUAAUGGCGAAUGGGACCCA [C19U A56C],0.0936
21,GGCCGGCAUGGUCCCAGCGUCCUCGCUGGCGCCGGCUGGGCAACAUUCCGAGGGUACCGUCCCCUCGGUAAUGGCGAAUGGGACCCA [C19G G55U],0.04
22,GGCCGGCAUGGUCCCAGCUUCCUCGAUGGCGCCGGCUGGGCAACAUUCCGAGGGGACCGUCCCCUCGGUAAUGGCGAAUGGGACCCA [C19U C26A],0.446

row,Variant,self-cleavage
1,GGCCGGCAUGGUCCCAGCUUCCUCGGUGGCGCCGGCUGGGCAACAUUCCGAGGGGACCGUCCCCUCGGUAAUGGCGAAUGGGACCCA [C19U C26G],0.356
2,GGCCGGCAUGGUCCCAGCGUCCUCGCUGGCGCCGGCUGGGCAACAUUCCGAGGUGACCGUCCCCUCGGUAAUGGCGAAUGGGACCCA [C19G G54U],0.0594
3,GGCCGGCAUGGUCCCAGCGUCCUCGCUGGCGCCGGCUGGGCAACAUUCCGAGGAGACCGUCCCCUCGGUAAUGGCGAAUGGGACCCA [C19G G54A],0.116
4,GGCCGGCAUGGUCCCAGCGUCCUCGCUGGCGCCGGCCGGGCAACAUUCCGAGGGGACCGUCCCCUCGGUAAUGGCGAAUGGGACCCA [C19G U37C],0.0594
5,GGCCGGCAUGGUCCCAGCUUCCUCGCUGGCGCCGGCUGGGCAACAUUCCGAGGGGACCGUCCCCUCGGUAAUGGCGAAUGGGACCCG [C19U A87G],0.107
6,GGCCGGCAUGGUCCCAGCUUCCUCGCUGGCGCCGGCUGGGCAACAUUCCGAGGGGACCGUCCCCUCGGUAAUGGCGAAUGGGACCCC [C19U A87C],0.235
7,GGCCGGCAUGGUCCCAGCGGCCUCGCUGGCGCCGGCUGGGCAACAUUCCGAGGGGACCGUCCCCUCGGUAAUGGCGAAUGGGACCCA [C19G U20G],0.138
8,GGCCGGCAUGGUCCCAGCGACCUCGCUGGCGCCGGCUGGGCAACAUUCCGAGGGGACCGUCCCCUCGGUAAUGGCGAAUGGGACCCA [C19G U20A],0.0314
9,GGCCGGCAUGGUCCCAGCGUCCUCGCUGGCGCCGGCUGGGCAACAUUCCGAGGGGACCGUCCCCUCGGUAAUGGCGAAUGAGACCCA [C19G G81A],0.117
10,GGCCGGCAUGGUCCCAGCGUCCUCGCUGGCGCCGGCUGGGCAACAUUCCGAGGGGACCGUCCCCUCGGUAAUGGCGAAUGCGACCCA [C19G G81C],0.0462
11,GGCCGGCAUGGUCCCAGCUUCCUCGCUGGCGCCGGCUGGGCAACAUUCCGAGGGGACCGUCCCCUCGGUACUGGCGAAUGGGACCCA [C19U A71C],0.0898
12,GGCCGGCAUGGUCCCAGCUUCCUCGCUGGCGCCGGCUGGGCAACAUUCCGAGGGGACCGUCCCCUCGGUAGUGGCGAAUGGGACCCA [C19U A71G],0.104
13,GGCCGGCAUGGUCCCAGCGUCCUCGCUGGCGCCGGCUGGGCAACAUUCCGAGGGGACCGUCCCCUCGGUAAUGUCGAAUGGGACCCA [C19G G74U],0.0601
14,GGCCGGCAUGGUCCCAGCGUCCUCGCUGGCGCCGGCUGGGCAACAUUCCGAGGGGACCGUCCCCUCGGUAAUGCCGAAUGGGACCCA [C19G G74C],0.0665
15,GGCCGGCAUGGUCCCAGCGUCCUCGCUGGCGCCGGCUGGGCAACAUUCCGAGGGGACCGUCCCCUCGGUAAUGGCGAAUGGUACCCA [C19G G82U],0.0627
16,GGCCGGCAUGGUCCCAGCGUCCUCGCUGGCGCCGGCUGGGCAACAUUCCGAGGGGACCGUCCCCUCGGUAAUGGCGAAUGGAACCCA [C19G G82A],0.102
17,GGCCGGCAUGGUCCCAGCGUCCUCGCUGGCGCCGGCUGGCCAACAUUCCGAGGGGACCGUCCCCUCGGUAAUGGCGAAUGGGACCCA [C19G G40C],0.102
18,GGCCGGCAUGGUCCCAGCGUCCUCGCUGGCGCCGGCUGGACAACAUUCCGAGGGGACCGUCCCCUCGGUAAUGGCGAAUGGGACCCA [C19G G40A],0.0573
19,GGCCGGCAUGGUCCCAGCUUCCUCGCUGGCGCCGGCUGGGCAACUUUCCGAGGGGACCGUCCCCUCGGUAAUGGCGAAUGGGACCCA [C19U A45U],0.136
20,GGCCGGCAUGGUCCCAGCUUCCUCGCUGGCGCCGGCUGGGCUACAUUCCGAGGGGACCGUCCCCUCGGUAAUGGCGAAUGGGACCCA [C19U A42U],0.035
21,GGCCGGCAUGGUCCCAGCUUCCUCGCUGGCGCCGGCUGGGCAACAUUCCGAGGGGACCGUCCCCUCGGUAAUGGCGAAUGGGUCCCA [C19U A83U],0.148
22,GGCCGGCAUGGUCCCAGCUUCCUCGCUGGCGCCGGCUGGGCAACAUUCCGAGGGGACCGUCCCCUCGGUAAUGGCGAAUGGGGCCCA [C19U A83G],0.0985

row,Variant,self-cleavage
1,GGCCGGCAUGGUCCCAGCGUCCUCGCUGGCGCCGGCUGGGCAACAUUCCCAGGGGACCGUCCCCUCGGUAAUGGCGAAUGGGACCCA [C19G G50C],0.0528
2,GGCCGGCAUGGUCCCAGCGUCCUCGCUGGCGCCGGCUGGGCAACAUUCCUAGGGGACCGUCCCCUCGGUAAUGGCGAAUGGGACCCA [C19G G50U],0.108
3,GGCCGGCAUGGUCCCAGCGUCCUCGCUGGCGCCGGCUGGGCAACAUUCCAAGGGGACCGUCCCCUCGGUAAUGGCGAAUGGGACCCA [C19G G50A],0.073
4,GGCCGGCAUGGUCCCAGCGUCCUCGCUGGCGCCGGCUGAGCAACAUUCCGAGGGGACCGUCCCCUCGGUAAUGGCGAAUGGGACCCA [C19G G39A],0.032
5,GGCCGGCAUGGUCCCAGCGUCCUCGCUGGCGCCGGCUGUGCAACAUUCCGAGGGGACCGUCCCCUCGGUAAUGGCGAAUGGGACCCA [C19G G39U],0.0707
6,GGCCGGCAUGGUCCCAGCUUCCUCGCUGGCGCCGGCUGGGCAACAUUCCGAGGGGACCGUCCCCUCGGUAAUGGCGAAUGGGACCCA [C19U],0.152
7,GGCCGGCAUGGUCCCAGCUUCGUCGCUGGCGCCGGCUGGGCAACAUUCCGAGGGGACCGUCCCCUCGGUAAUGGCGAAUGGGACCCA [C19U C22G],0.0692
8,GGCCGGCAUGGUCCCAGCGUCCUCGCCGGCGCCGGCUGGGCAACAUUCCGAGGGGACCGUCCCCUCGGUAAUGGCGAAUGGGACCCA [C19G U27C],0.0875
9,GGCCGGCAUGGUCCCAGCGUCCUCGCUGGCGCCGGCUGGGCAACAUUCCGAGGGGACCGUCCCCUCGUUAAUGGCGAAUGGGACCCA [C19G G68U],0.119
10,GGCCGGCAUGGUCCCAGCGUCCUCGCUGGCGCCGGCUGGGCAACAUUCCGAGGGGACCGUCCCCUCGGUAAUUGCGAAUGGGACCCA [C19G G73U],0.0545
11,GGCCGGCAUGGUCCCAGCUUCCUCGCUGGCGCCGGCUGGGCAACAUUCCGAGGGGACCGUCCCCUCGGUAAUGGCGACUGGGACCCA [C19U A78C],0.172
12,GGCCGGCAUGGUCCCAGCUUCCUCGCUGGCGCCGGCUGGGCAACAUUCCGAGGGGACCGUCCCCUCGGUAAUGGCGAGUGGGACCCA [C19U A78G],0.0405
13,GGCCGGCAUGGUCCCAGCGUCCUCGCUGGCGCCGGCUGGGCAACAUUCCGAGGGGACCGUCCCCUCGGUAAUGGCUAAUGGGACCCA [C19G G76U],0.0791
14,GGCCGGCAUGGUCCCAGCGUCCUCGCUGGCGCCGGCUGGGCAACAUUCCGAGGGGACCGUCCCCACGGUAAUGGCGAAUGGGACCCA [C19G U65A],0.0354
15,GGCCGGCAUGGUCCCAGCGUCCUCGCUGGCGCCGGCUGGGCAACAUUCCGAGGGGACCGUCCCCCCGGUAAUGGCGAAUGGGACCCA [C19G U65C],0
16,GGCCGGCAUGGUCCCAGCGUCCUCGCUGGCGCCGGCUGGGCAACAUUCCGAGGGGACCGUCCCCGCGGUAAUGGCGAAUGGGACCCA [C19G U65G],0.111
17,GGCCGGCAUGGUCCCAGCGUCCUCGCUGGCGCCGGCUGGGCAACAUUCCGAGGGGACCGUCCCCUCGGUAAUGGCGAACGGGACCCA [C19G U79C],0.0264
18,GGCCGGCAUGGUCCCAGCGUCCUCGCUGGCGCCGGCUGGGCAACAUUCCGAGGGGACCGUCCCCUCGGUAAUGGCGAAAGGGACCCA [C19G U79A],0
19,GGCCGGCAUGGUCCCAGCGUCCUCGCUGGCGCCGGCUGGGCAACAUUCCGACGGGACCGUCCCCUCGGUAAUGGCGAAUGGGACCCA [C19G G52C],0.121
20,GGCCGGCAUGGUCCCAGCGUCCUCGCUGGCGCCGGCUGGGCAACAUUCCGAAGGGACCGUCCCCUCGGUAAUGGCGAAUGGGACCCA [C19G G52A],0.0739
